Columns and labels:
Assay in all cases: peptide or protein array
[1] = target: carbonic anhydrase 1 on the ProtoArray Human Protein Microarray (human, UniProt P00915 1-261)
[2] = target: T1, chromosome 7 open reading frame 50 on the ProtoArray Human Protein Microarray (human, UniProt Q9BRJ6 1-194)
T1 sequence (looked up): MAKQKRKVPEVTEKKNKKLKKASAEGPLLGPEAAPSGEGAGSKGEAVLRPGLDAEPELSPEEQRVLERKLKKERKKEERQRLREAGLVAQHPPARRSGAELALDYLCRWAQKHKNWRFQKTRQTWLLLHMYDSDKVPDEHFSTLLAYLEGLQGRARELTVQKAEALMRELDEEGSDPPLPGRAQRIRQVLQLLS

[3] = target: mitogen-activated protein kinase kinase 2 (MEK2) on the ProtoArray Human Protein Microarray (human, UniProt P36507 1-400)
[4] = target: casein kinase 1ε (CK1ε) on the ProtoArray Human Protein Microarray (human, UniProt P49674 1-416)
Sequence of casein kinase 1ε (CK1ε) on the ProtoArray Human Protein Microarray (P49674 whole entry): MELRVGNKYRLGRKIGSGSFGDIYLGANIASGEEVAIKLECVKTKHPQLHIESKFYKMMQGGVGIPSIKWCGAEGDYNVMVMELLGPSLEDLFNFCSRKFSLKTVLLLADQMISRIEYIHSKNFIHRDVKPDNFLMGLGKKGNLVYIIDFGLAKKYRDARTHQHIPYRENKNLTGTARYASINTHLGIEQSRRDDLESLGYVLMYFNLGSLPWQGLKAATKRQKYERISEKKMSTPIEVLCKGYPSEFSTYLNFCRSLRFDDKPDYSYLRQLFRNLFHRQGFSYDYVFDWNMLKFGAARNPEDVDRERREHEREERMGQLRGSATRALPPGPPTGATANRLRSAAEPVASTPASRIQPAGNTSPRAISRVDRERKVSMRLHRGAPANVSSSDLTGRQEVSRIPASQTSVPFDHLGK

[5] = target: glycogen synthase kinase 3β (GSK3β) on the ProtoArray Human Protein Microarray (human, UniProt P49841 1-420)
Sequence of glycogen synthase kinase 3β (GSK3β) on the ProtoArray Human Protein Microarray (P49841 whole entry): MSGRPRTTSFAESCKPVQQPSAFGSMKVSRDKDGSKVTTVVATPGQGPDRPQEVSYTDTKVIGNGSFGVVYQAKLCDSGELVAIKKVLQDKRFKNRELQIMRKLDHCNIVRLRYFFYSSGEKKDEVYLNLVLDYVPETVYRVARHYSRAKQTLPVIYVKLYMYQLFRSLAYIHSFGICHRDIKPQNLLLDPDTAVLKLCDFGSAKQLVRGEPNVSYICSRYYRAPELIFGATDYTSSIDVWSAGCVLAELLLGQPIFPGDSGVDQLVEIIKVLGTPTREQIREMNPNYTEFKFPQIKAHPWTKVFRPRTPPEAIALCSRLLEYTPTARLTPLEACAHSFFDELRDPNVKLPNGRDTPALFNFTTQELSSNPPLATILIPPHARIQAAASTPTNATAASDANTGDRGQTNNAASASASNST

Measured: binding result

Sequence of carbonic anhydrase 1 on the ProtoArray Human Protein Microarray (P00915 whole entry): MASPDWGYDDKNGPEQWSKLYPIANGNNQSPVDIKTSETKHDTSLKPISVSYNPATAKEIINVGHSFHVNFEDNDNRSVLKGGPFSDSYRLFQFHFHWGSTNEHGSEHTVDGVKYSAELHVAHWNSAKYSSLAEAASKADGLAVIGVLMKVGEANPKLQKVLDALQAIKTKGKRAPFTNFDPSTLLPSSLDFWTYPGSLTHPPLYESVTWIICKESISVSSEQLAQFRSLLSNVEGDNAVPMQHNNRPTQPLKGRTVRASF

B1: V5-SRGY (RBMY amino acid residues 227–374, 4 repeated SRGY box domains) (domain or fragment, human, UniProt P0DJD3-1 227-374, looked up)
chain: ETRDYAPPSRGYAYRDNGHSNRDEHSSRGYRNHRSSRETRDYAPPSRGHAYRDYGHSRRDESYSRGYRNRRSSRETREYAPPSRGHGYRDYGHSRRHESYSRGYRNHPSSRETRDYAPPHRDYAYRDYGHSSWDEHSSRGYSYHDGYG
binds: all assays above
